The target in series [1] is hSlo1EM-eGFP-twin-strep (human Slo1 channel, tags on) (human).
Series [2] has as its target hSlo1EM (human Slo1 channel, tags released) (human). Kind of series: SEC.
Series [3] deals with hSlo1EM-eGFP-twin-strep (human Slo1 channel, tags on) (human). The source holds these as a separate data set.
The series “SEC” concerns the molecule itself. As to the kind of experiment: SEC.
Series [4] addresses hSlo1EM-eGFP-twin-strep (human Slo1 channel, tags on) (human). This is another data set of the same source.
Series [5] shares this target. The source holds these as a separate data set.
The series “cryo-EM structure” deals with the molecule itself. As to the kind of experiment: cryo-EM structure.
In series [6] the target is hSlo1EM (human Slo1 channel, tags released) (human). As to the kind of experiment: cryo-EM structure.

Data on ten molecules can be found in paper doi:10.1101/2023.12.20.572542 (bioRxiv, 2023).

Where a chain is given by its changes, count along the chain named. Names may count otherwise. A value given as a limit tells only on which side of the number the result lay.

Sequence of hSlo1EM-eGFP-twin-strep (human Slo1 channel, tags on) (human) (Q12791 whole entry): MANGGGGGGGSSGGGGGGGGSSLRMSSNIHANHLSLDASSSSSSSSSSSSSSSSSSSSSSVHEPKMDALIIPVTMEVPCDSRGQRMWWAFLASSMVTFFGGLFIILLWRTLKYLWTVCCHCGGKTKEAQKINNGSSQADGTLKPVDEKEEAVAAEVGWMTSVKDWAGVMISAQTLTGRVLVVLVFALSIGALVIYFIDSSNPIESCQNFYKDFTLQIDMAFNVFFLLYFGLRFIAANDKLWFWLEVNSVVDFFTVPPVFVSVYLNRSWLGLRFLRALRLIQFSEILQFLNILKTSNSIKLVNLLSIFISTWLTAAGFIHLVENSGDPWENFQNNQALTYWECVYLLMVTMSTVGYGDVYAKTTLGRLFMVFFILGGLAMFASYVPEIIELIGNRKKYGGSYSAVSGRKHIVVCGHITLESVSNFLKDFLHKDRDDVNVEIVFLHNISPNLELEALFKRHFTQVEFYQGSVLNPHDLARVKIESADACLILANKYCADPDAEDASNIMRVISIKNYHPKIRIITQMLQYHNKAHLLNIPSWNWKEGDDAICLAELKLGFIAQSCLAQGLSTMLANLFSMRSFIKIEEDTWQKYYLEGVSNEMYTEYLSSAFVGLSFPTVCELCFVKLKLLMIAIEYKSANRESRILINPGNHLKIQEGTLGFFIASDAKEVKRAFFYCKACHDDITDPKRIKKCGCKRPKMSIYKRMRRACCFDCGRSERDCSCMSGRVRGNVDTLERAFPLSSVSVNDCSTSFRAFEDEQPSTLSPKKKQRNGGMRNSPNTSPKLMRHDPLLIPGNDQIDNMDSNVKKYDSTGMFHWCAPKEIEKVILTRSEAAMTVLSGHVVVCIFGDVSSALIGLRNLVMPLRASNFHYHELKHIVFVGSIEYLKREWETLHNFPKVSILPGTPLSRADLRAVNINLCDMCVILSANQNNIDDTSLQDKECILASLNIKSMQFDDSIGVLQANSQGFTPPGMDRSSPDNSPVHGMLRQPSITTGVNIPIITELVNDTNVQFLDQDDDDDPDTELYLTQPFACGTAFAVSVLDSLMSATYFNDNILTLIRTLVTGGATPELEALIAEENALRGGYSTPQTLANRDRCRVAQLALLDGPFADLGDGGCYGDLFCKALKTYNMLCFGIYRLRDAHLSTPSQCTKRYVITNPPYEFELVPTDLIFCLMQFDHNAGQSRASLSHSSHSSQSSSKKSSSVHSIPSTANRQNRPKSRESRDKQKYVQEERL

In turn, “hSlo1EM-eGFP-twin-strep (human Slo1 channel, tags on) (natural protein)” registered a stoichiometry N in series [1] of 4 subunits.
Take “hSlo1EM (human Slo1 channel, tags released) (natural protein)”: the stoichiometry N in series [2] is 4 subunits.

B1: LRRC38 (γ4)-mCherry-FLAG (natural protein)
chain: CPAGCACTDPHTVDCRDRGLPSVPDPFPLDVRKLLVAGNRIQRIPEDFFIFYGDLVYLDFRNNSLRSLEEGTFSGSAKLVFLDLSYNNLTQLGAGAFRSAGRLVKLSLANNNLVGVHEDAFETLESLQVLELNDNNLRSLSVAALAALPALRSLRLDGNPWLCDCDFAHLFSWIQENASKLPKGLDEIQCSLPMESRRISLRELSEASFSECRFSLSLTDLCIIIFSGVAVSIAAIISSFFLATVVQCLQRCAPNKDAEDEDEDKDD
Regarding B1, the percent of total Slo1 in complex in series [3] was < 10%.

B2: LRRC55 (γ3)-mCherry-FLAG (natural protein)
chain: GTSCPVLCTCRNQVVDCSSQRLFSVPPDLPMDTRNLSLAHNRITAVPPGYLTCYMELQVLDLHNNSLMELPRGLFLHAKRLAHLDLSYNNFSHVPADMFQEAHGLVHIDLSHNPWLRRVHPQAFQGLMQLRDLDLSYGGLAFLSLEALEGLPGLVTLQIGGNPWVCGCTMEPLLKWLRNRIQRCTADSQLAECRGPPEVEGAPLFSLTEESFKACHLTLTLDDYLFIAFVGFVVSIASVATNFLLGITANCCHRWSKASEEEEI
For B2, the percent of total Slo1 in complex in series [3] is < 10%.

B3: LRRD of γ1 (residues 1-261)-mCherry-FLAG (domain or fragment, human, UniProt Q2I0M4 27-261, looked up)
chain: QVSATASPSGSLGAPDCPEVCTCVPGGLASCSALSLPAVPPGLSLRLRALLLDHNRVRALPPGAFAGAGALQRLDLRENGLHSVHVRAFWGLGALQLLDLSANQLEALAPGTFAPLRALRNLSLAGNRLARLEPAALGALPLLRSLSLQDNELAALAPGLLGRLPALDALHLRGNPWGCGCALRPLCAWLRRHPLPASEAETVLCVWPGRLTLSPLTAFSDAAFSHCAQPLALRD
In the case of B3, in the series “SEC”, the binding result is given as “binds”.

B4: β2 subunit-mCherry-FLAG (natural protein)
chain: MFIWTSGRTSSSYRHDEKRNIYQKIRDHDLLDKRKTVTALKAGEDRAILLGLAMMVCSIMMYFLLGITLLRSYMQSVWTEESQCTLLNASITETFNCSFSCGPDCWKLSQYPCLQVYVNLTSSGEKLLLYHTEETIKINQKCSYIPKCGKNFEESMSLVNVVMENFRKYQHFSCYSDPEGNQKSVILTKLYSSNVLFHSLFWPTCMMAGGVAIVAMVKLTQYLSLLCERIQRINR
B4 had a stoichiometry N (auxiliary subunits per Slo1 tetramer) in series [4] of 4. The percent of total Slo1 in complex in series [3] is > 90%.

B5: human LRRC26 (γ1)-mCherry-FLAG (natural protein, UniProt Q2I0M4 27-334, looked up)
chain: QVSATASPSGSLGAPDCPEVCTCVPGGLASCSALSLPAVPPGLSLRLRALLLDHNRVRALPPGAFAGAGALQRLDLRENGLHSVHVRAFWGLGALQLLDLSANQLEALAPGTFAPLRALRNLSLAGNRLARLEPAALGALPLLRSLSLQDNELAALAPGLLGRLPALDALHLRGNPWGCGCALRPLCAWLRRHPLPASEAETVLCVWPGRLTLSPLTAFSDAAFSHCAQPLALRDLAVVYTLGPASFLVSLASCLALGSGLTACRARRRRLRTAALRPPRPPDPNPDPDPHGCASPADPGSPAAAAQA
For the molecule B5, the stoichiometry N (auxiliary subunits per Slo1 tetramer) in series [4] was determined as 4. For the same molecule, the percent of total Slo1 in complex in series [3] amounted to 50%. Also, the stoichiometry N (γ1 subunits per Slo1 tetramer) in series [5] was found to be 3.5. Besides, the binding result in “SEC” is listed as “binds”.

B6: γ1 P270F-mCherry-FLAG (natural protein)
chain: B5 chain with P244F
Regarding B6, in series [4], the stoichiometry N (γ subunits per Slo1 tetramer) turned out to be 2.4.

B7: human LRRC26 (γ1) subunit, tags released (natural protein, UniProt Q2I0M4 27-334, looked up)
chain: B5 chain
modifications: density at N147 likely corresponding to glycosylation
In the case of B7, the binding result in the series “cryo-EM structure” is “binds”. Also, in series [6], the stoichiometry N (γ1 subunits per Slo1 tetramer) is 4.

B8: β4 subunit-mCherry-FLAG (natural protein)
chain: MAKLRVAYEYTEAEDKSIRLGLFLIISGVVSLFIFGFCWLSPALQDLQATEANCTVLSVQQIGEVFECTFTCGADCRGTSQYPCVQVYVNNSESNSRALLHSDEHQLLTNPKCSYIPPCKRENQKNLESVMNWQQYWKDEIGSQPFTCYFNQHQRPDDVLLHRTHDEIVLLHCFLWPLVTFVVGVLIVVLTICAKSLAVKAEAMKKRKFS
For B8, the stoichiometry N (auxiliary subunits per Slo1 tetramer) in series [4] came to 4. The percent of total Slo1 in complex in series [3] is > 90%.
